# The supplement of paper PMC9732359
# ± gives the uncertainty stated by the source.
# Assay: protein stability index of a GFP-peptide fusion (yeast GPS) (PSI 1-4); higher = more stable; sorted into four equal gates, so the index is relative within each strain
# How it was run: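 Tiled yeast protein peptides of 17 residues were each joined downstream of GFP, on plasmids that also express Cherry. The pooled library was maintained in yeast, and mid-log cultures in leucine-free medium were sorted into four equal gates on the GFP/Cherry ratio. Plasmids from every gate were amplified by PCR and sequenced on Illumina, with barcodes linking reads to strains. The protein stability index of a peptide is its gate-number-weighted read frequency summed over the gates.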
Sequence,protein stability index (doa10∆),protein stability index (pdr5∆),protein stability index (ubr1∆),protein stability index (san1∆)
RGKDGKLHVAAKLPGHK [YGL100W/SEH1],3.31 ± 0.14,3.13 ± 0.14,2.7 ± 0.16,
RGTDIDRINYTETALMN [SRB5],3.02 ± 0.26,2.98 ± 0.11,2.73 ± 0.12,2.69 ± 0.082
RGVTKVGFGESNFTSII [SMC1],3.56 ± 0.19,3.33 ± 0.11,3.08 ± 0.08,3.09 ± 0.15
RHIKSKHEDLSLEQRQE [RPN4],2.97 ± 0.069,3.05 ± 0.086,3.03 ± 0.066,2.79 ± 0.096
RHTTGTGRMRYLKHVSR [RPL37A],3.14 ± 0.11,3.26 ± 0.081,3.1 ± 0.11,3.55 ± 0.081
RIANIEQNHLDNNYNTA [YDL088C/ASM4],3.11 ± 0.065,3.18 ± 0.071,3.03 ± 0.064,3.08 ± 0.044
RIGVLQARMMQQQSADH [NSL1],2.88 ± 0.062,3.06 ± 0.057,2.96 ± 0.042,3.06 ± 0.046
RIHRLARYYRTVAVLPP [RPS13],1.83 ± 0.088,1.8 ± 0.06,2.11 ± 0.046,2.44 ± 0.074
RIHVNPSYYGVRDTSPH [BRR2],1.96 ± 0.1,1.93 ± 0.072,1.9 ± 0.058,1.74 ± 0.085
RIKEMYWKLWIDEPFNL [FAS1],3.39 ± 0.086,3.25 ± 0.078,2.91 ± 0.075,2.76 ± 0.12
RILKNVSPNDNNSANNN [YMR153W/NUP53],2.75 ± 0.052,2.42 ± 0.048,2.59 ± 0.044,2.29 ± 0.054
RILNFFDKNTKTTPNTA [YMR153W/NUP53],2.42 ± 0.051,2.53 ± 0.055,2.43 ± 0.047,2.56 ± 0.048
RINSTDEDLHEFQIEDA [SRB8],2.86 ± 0.14,2.87 ± 0.078,3.22 ± 0.2,2.86 ± 0.12
RITDASLFQLSKLGKNL [GRR1],2.38 ± 0.045,2.55 ± 0.05,2.51 ± 0.036,2.12 ± 0.061
RITKSNEKSQAEQEKAK [LRP1],1.9 ± 0.075,1.33 ± 0.067,1.25 ± 0.14,1.48 ± 0.18
RKDKDAKFRLILIESRI [RPS13],1.52 ± 0.094,1.82 ± 0.12,2.57 ± 0.11,1.9 ± 0.11
RKEWFDIKAPSTFENRN [RPS1A],1.95 ± 0.093,2.46 ± 0.07,3.02 ± 0.06,1.77 ± 0.098
RKIKRLEKFLQGRDTSK [SRP72],2.79 ± 0.1,2.16 ± 0.059,2.76 ± 0.048,2.14 ± 0.12
RKPMGKRINFEKIKDIH [POP1],2.67 ± 0.051,3.12 ± 0.05,2.87 ± 0.038,3.04 ± 0.065
RKTLKEKAIPKDQRATT [RPO26],3.06 ± 0.057,3.18 ± 0.064,3.31 ± 0.07,3.04 ± 0.049
RLAEFKRRKLDLNNAVQ [SMC4],3.28 ± 0.27,2.87 ± 0.12,2.96 ± 0.078,2.98 ± 0.067
RLANLIDYKLRVLTQDG [SMB1],2.65 ± 0.089,2.69 ± 0.08,2.79 ± 0.047,1.62 ± 0.13
RLDILDPALLRPGRIDR [RPT6],2.79 ± 0.22,,,2.65 ± 0.12
RLGSEADAKAFLDSMAQ [FAS2],3.38 ± 0.091,3.44 ± 0.081,3.33 ± 0.11,3.21 ± 0.062
RLLAKDAMIAQRSKKIQ [DIS3],1.24 ± 0.1,1.92 ± 0.091,1.59 ± 0.069,1.41 ± 0.072
RLLEKSELPDIYSRDIG [SNF2],3.12 ± 0.14,3.37 ± 0.13,3.21 ± 0.17,2.96 ± 0.084

Sequence,protein stability index (doa10∆),protein stability index (pdr5∆),protein stability index (ubr1∆),protein stability index (san1∆)
RLNPYAKVFAAEKLGSK [RPL4A],2.09 ± 0.14,,,
RLQFAQGSVRRLTVSAR [QCR2],1.33 ± 0.075,1.39 ± 0.13,1.14 ± 0.073,1.77 ± 0.27
RLQQQQAQAQAQANNNN [GAL11],2.03 ± 0.093,2.55 ± 0.078,2.04 ± 0.06,2.74 ± 0.076
RMAKLCARFLGNRGFSI [RPO31],2.35 ± 0.2,,2.93 ± 0.2,
RMKQYLKTKLLEEVEGS [RPB7],3.09 ± 0.13,3.09 ± 0.1,3.24 ± 0.13,3.11 ± 0.088
RMVRSIMWQLLDGVSYL [SSN3],1.27 ± 0.078,1.26 ± 0.1,1.34 ± 0.1,1.18 ± 0.12
RNARAARAAKIAPRPLD [RPL13B],2.86 ± 0.12,3.11 ± 0.09,2.45 ± 0.056,3.14 ± 0.074
RNESLKNNSSIRNVIMS [SRB8],1.81 ± 0.035,2.11 ± 0.049,2.09 ± 0.039,1.87 ± 0.084
RNLDSATLKEIKSIIEQ [SMC3],3.25 ± 0.078,3.51 ± 0.087,3.21 ± 0.068,3.2 ± 0.066
RNNSKSVLLKKLGSVRV [SRP72],,1.33 ± 0.11,1.69 ± 0.087,
RNQRKGAGSIFTSHTRL [RPL2A],2.03 ± 0.054,3.12 ± 0.067,3.09 ± 0.059,2.73 ± 0.05
RNSVKLLSKLLLKHPFK [YCS4],2.41 ± 0.042,2.1 ± 0.038,2.07 ± 0.04,1.92 ± 0.056
RPLQKIMLLQLELGSCF [SIN4],1.41 ± 0.058,1.54 ± 0.065,1.42 ± 0.061,1.79 ± 0.1
RPYGVGLLIIGYDKSGA [PRE5],1.68 ± 0.12,1.08 ± 0.14,1.06 ± 0.12,
RQGLIHQGSGGSVMSAS [SMC3],2.75 ± 0.091,3.14 ± 0.062,2.69 ± 0.067,2.53 ± 0.086
RQGRSNRRGMLALSGTS [SNF5],2.89 ± 0.068,2.97 ± 0.057,2.74 ± 0.051,2.81 ± 0.058
RQILFKYPMYMQLEEEL [MED6],2.18 ± 0.064,2.25 ± 0.069,1.72 ± 0.062,2.37 ± 0.12
RQKKKPTSAQKSAVSHA [IRR1],1.34 ± 0.24,,1.56 ± 0.15,
RQLAGAIGYEPLSLTHR [DIS3],2.94 ± 0.057,2.87 ± 0.057,2.93 ± 0.041,2.86 ± 0.07
RQSKSSGKSNTSNDASN [ITC1],3.09 ± 0.095,3.28 ± 0.08,3.22 ± 0.076,3.34 ± 0.065
RQVYKPVLDNPFTNEAH [POP3],2.47 ± 0.073,2.67 ± 0.067,2.88 ± 0.04,2.46 ± 0.082
RRDDEVLVVRGSKKGQE [RPL26A],3.63 ± 0.087,3.36 ± 0.089,3.57 ± 0.085,3.59 ± 0.079
RREFKQYSLERNSPFWW [PRP8],3.06 ± 0.12,3.64 ± 0.12,3.19 ± 0.14,3.1 ± 0.12
RRFKNGFQTGSAKATSA [RPL37B],3.02 ± 0.066,3.08 ± 0.079,3.18 ± 0.06,3.39 ± 0.09
RRKDTSMVLFFVCLSCS [RPB9],1.3 ± 0.052,1.32 ± 0.07,1.38 ± 0.039,1.4 ± 0.12
RRREQTTYSVDDYYKEI [ISW2],2 ± 0.044,2.55 ± 0.035,2.87 ± 0.044,1.91 ± 0.071

Sequence,protein stability index (doa10∆),protein stability index (pdr5∆),protein stability index (ubr1∆),protein stability index (san1∆)
RRSLKKQGRIKNATEEL [CSN12],3.2 ± 0.098,3.56 ± 0.083,3.57 ± 0.066,3.37 ± 0.086
RSATGAKRAQFRKKRKF [RPS8A],2.94 ± 0.1,2.5 ± 0.085,2.68 ± 0.073,3.42 ± 0.096
RSKGKQNRPYNHPELQG [RPC17],2.08 ± 0.047,2.32 ± 0.082,1.94 ± 0.053,2.03 ± 0.088
RSLEKVNNSVSKTGSVD [SSN2],2.38 ± 0.11,3.53 ± 0.15,3.37 ± 0.11,3.36 ± 0.14
RSMVRKWQTLIEANVTV [RPS1A],1.65 ± 0.053,1.62 ± 0.044,2.24 ± 0.041,1.67 ± 0.079
RSNKIKVVKTPGGILRA [RPL34A],2.64 ± 0.068,2.12 ± 0.047,2.2 ± 0.041,2.49 ± 0.064
RSPVFALNMLPSEILHL [GRR1],2.3 ± 0.049,2.27 ± 0.042,2.19 ± 0.028,2.4 ± 0.053
RSSRLHIVYSLLVNPDI [YML103C/NUP188],1.57 ± 0.047,2.01 ± 0.05,2.26 ± 0.05,1.87 ± 0.075
RSSYMLELVNTPLTENI [YCG1],3.11 ± 0.096,3.18 ± 0.082,2.91 ± 0.084,3.04 ± 0.073
RSTKDMIDAVFEQDSHL [SNF6],3.12 ± 0.068,3.34 ± 0.054,3.14 ± 0.058,3.27 ± 0.053
RTDATFIRVIGSELVQK [RPT1],3.2 ± 0.082,3.19 ± 0.057,2.98 ± 0.051,3.04 ± 0.072
RTLRRKGDINPEVSMIR [RPB2],3.11 ± 0.16,3.39 ± 0.13,3.12 ± 0.076,2.79 ± 0.21
RTLTAVHDKILEDLVFP [RPS7A],3.24 ± 0.13,3.15 ± 0.073,3.25 ± 0.098,3.28 ± 0.059
RTSTRGRGRGRGRGRGR [SNF2],3.41 ± 0.11,3.17 ± 0.12,3.08 ± 0.15,2.86 ± 0.098
RTVKNILVSVLPGTEKG [CSL4],1.65 ± 0.27,,,
RTYSKTYSTPKRPYESS [RPS9A],2.19 ± 0.055,2.23 ± 0.066,2.53 ± 0.043,2.46 ± 0.053
RVERSSRSTDNFHNSKK [RRI1],3.31 ± 0.076,3.25 ± 0.078,3.08 ± 0.057,2.99 ± 0.082
RVIDDNNRRRSRKRGGE [SIR3],3.57 ± 0.086,3.36 ± 0.11,3.46 ± 0.084,3.21 ± 0.11
RVISEYYSRITLLRLNE [RPN5],2.65 ± 0.076,1.67 ± 0.05,1.87 ± 0.068,1.68 ± 0.084
RVLEIQTSLVRMFEKNV [SKI6],3.35 ± 0.094,3.07 ± 0.065,3.12 ± 0.047,2.51 ± 0.078
RVSKDKKSGSLTFNSKN [FAS2],3.34 ± 0.084,3.26 ± 0.072,3.18 ± 0.074,3.23 ± 0.092
RVTGGMKVKADRDESSP [RPS14A],3.31 ± 0.077,3.24 ± 0.063,3.26 ± 0.05,3.28 ± 0.038
RVTNTTSTDFPGFSKDA [RPC40],,3.04 ± 0.21,,
RYEEFADKVKLGRVRNH [RPC40],2.93 ± 0.064,2.99 ± 0.074,2.96 ± 0.056,3 ± 0.068
RYLDNLKQEIDRGLSIK [SNU114],3.02 ± 0.15,2.9 ± 0.17,2.97 ± 0.082,3.4 ± 0.18
RYNGGNDNIGANRSRFN [SMB1],3.24 ± 0.099,3.39 ± 0.078,3.35 ± 0.08,3.14 ± 0.048
